Data on two molecules can be found in US20250296992A1 (Genmab, published 2025).

In experiment [1] the target is T1, cynomolgus monkey SLITRK6 extracellular domain linked to his tag (cynomolgus monkey, UniProt G7PVK4 27-608).
T1 construct: extracellular domain; also called cynoSLITRK6; Cyno SLITRK6; not shown: his tag
The experiment in a line: BLI; antigen-his on anti-his tips, antibody or ADC as analyte; 1:1 fit.

Experiment [2] concerns the target T2, human SLITRK6 extracellular domain linked to his tag (human, UniProt Q9H5Y7 27-608).
T2 construct: extracellular domain; also called huSLITRK6; Hu SLITRK6; not shown: his tag
Described as above.

The next experiment concerns the target T3, mouse SLITRK6 (mouse, UniProt Q8C110 23-609).
T3 construct: extracellular domain; also called Mu SLITRK6; not shown: his tag
Described as above.

In experiment [3] the target is T4, human SLITRK6 on cells (human, UniProt Q9H5Y7 27-841).
T4 construct: whole, on cells
Description: flow cytometry on CHP-212 cells, PE-conjugated anti-human Fc.
Description: (§1) Specifically, cells were incubated with 50 μL of mAbs or ADCs in series dilutions in PBS containing 1% BSA at 4° C. for 30 min. The cells were washed twice with PBS containing 1% BSA, stained with PE-conjugated anti human Fc in PBS containing 1% BSA and then incubated at 4° C. for 20 min. After that the cells were washed twice with PBS and analyzed by a flow cytometer.

The target in experiment [4] is T4, human SLITRK6 on cells. Description: flow cytometry on RT4 cells, PE-conjugated anti-human Fc.
Description: as §1
The target in another experiment is T5, human SLITRK4 (human, UniProt Q8IW52 19-618, limits assumed).
T5 construct: The method text describes only the SLITRK6 ECD-his construct; also called Hu SLITRK4
T5 sequence (looked up): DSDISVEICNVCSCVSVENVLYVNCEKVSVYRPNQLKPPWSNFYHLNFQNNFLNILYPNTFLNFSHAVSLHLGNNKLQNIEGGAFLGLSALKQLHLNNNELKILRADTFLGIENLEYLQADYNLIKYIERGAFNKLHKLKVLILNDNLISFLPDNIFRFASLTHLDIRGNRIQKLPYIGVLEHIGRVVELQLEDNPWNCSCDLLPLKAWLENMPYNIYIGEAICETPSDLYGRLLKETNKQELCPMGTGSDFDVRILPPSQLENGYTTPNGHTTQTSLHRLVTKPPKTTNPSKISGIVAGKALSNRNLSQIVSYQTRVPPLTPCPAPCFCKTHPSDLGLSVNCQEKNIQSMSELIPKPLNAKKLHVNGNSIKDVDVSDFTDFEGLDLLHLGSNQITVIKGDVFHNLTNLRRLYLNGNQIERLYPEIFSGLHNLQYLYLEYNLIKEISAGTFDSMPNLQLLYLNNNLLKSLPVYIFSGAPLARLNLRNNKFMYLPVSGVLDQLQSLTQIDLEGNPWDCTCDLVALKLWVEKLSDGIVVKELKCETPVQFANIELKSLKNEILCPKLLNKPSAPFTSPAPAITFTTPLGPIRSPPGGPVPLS
The experiment in a line: BLI, antigen on anti-his tips.

A further experiment concerns the target T6, human SLITRK1 (human, UniProt Q96PX8 18-622, limits assumed).
T6 construct: The method text describes only the SLITRK6 ECD-his construct; also called Hu SLITRK1
T6 sequence (looked up): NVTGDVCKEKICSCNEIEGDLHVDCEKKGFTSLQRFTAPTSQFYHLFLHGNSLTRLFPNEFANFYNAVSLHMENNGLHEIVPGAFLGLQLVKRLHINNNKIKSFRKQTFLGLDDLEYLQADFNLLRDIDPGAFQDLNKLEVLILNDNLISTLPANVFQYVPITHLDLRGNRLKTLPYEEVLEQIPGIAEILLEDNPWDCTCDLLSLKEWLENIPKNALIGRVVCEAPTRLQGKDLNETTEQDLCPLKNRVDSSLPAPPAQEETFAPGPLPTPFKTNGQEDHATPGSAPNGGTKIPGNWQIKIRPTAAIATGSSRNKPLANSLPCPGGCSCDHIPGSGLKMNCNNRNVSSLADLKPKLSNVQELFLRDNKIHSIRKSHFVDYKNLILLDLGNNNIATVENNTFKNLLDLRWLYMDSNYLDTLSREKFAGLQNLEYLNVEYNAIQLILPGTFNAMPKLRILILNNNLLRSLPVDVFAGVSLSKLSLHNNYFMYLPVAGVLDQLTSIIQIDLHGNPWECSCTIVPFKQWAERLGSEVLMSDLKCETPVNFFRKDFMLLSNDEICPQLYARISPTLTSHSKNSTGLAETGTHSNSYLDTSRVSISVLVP
The experiment in a line: BLI, antigen on anti-his tips.

Experiment [5] deals with T7, rat SLITRK6 (rat, UniProt D3ZP44 27-607).
T7 construct: extracellular domain; not shown: his tag
The experiment in a line: BLI, antigen on anti-his tips.

In experiment [6] the target is T4, human SLITRK6 on cells. The experiment in a line: flow cytometry on SW780 cells, PE-conjugated anti-human Fc.
Description: as §1
Experiment [7] concerns the target T4, human SLITRK6 on cells. Description: flow cytometry on KYSE-410 cells, PE-conjugated anti-human Fc.
Description: as §1
The target of experiment [8] is T4, human SLITRK6 on cells. Description: flow cytometry on KYSE-30 cells, PE-conjugated anti-human Fc.
Description: as §1
The target in experiment [9] is T4, human SLITRK6 on cells. The experiment in a line: flow cytometry on RT112/84 cells, PE-conjugated anti-human Fc.
Description: as §1
Experiment [10] concerns the target T4, human SLITRK6 on cells. The experiment in a line: flow cytometry on 293F-huSLITRK6 cells, PE-conjugated anti-human Fc.
Description: as §1
The target of experiment [11] is T4, human SLITRK6 on cells. Description: flow cytometry on 293F-huSLITRK6-C9 cells.
Description: The binding activity of mAbs was evaluated by flow cytometer (Beckman, Cytoflex). Specifically, cells were incubated with 50 μL of mAbs or ADCs in series dilutions in PBS containing 1% BSA at 4° C. for 30 min. The cells were washed twice with PBS containing 1% BSA, stained with PE-conjugated anti human Fc in PBS containing 1% BSA and then incubated at 4° C. for 20 min. After that the cells were washed twice with PBS and analyzed by a flow cytometer.
Experiment [12] has as its target T1, cynomolgus monkey SLITRK6 extracellular …. Description: ELISA, coated antigen.
Description: (§2) First, a purified antigen was adsorbed to the surface of a PVC 96-well plate for ELISA at 4° C. overnight, the plate was washed twice by filling the wells with 350 μL TBST buffer (200 mM Sodium Chloride, 20 mM Tris, 0.05% Tween-20, pH 8). The surface of the solid phase having no antigen adsorbed thereto was covered with BSA. After washing the surface with TBST buffer, the surface was incubated with a serially diluted mAb as a primary antibody to bind to the antigen for 1 hour at room temperature. The plate was washed twice with TBST buffer and added an antibody labeled with an enzyme as a secondary antibody to incubate for 1 hour at room temperature.
Experiment [13] addresses T2, human SLITRK6 extracellular domain …. The experiment in a line: ELISA, coated antigen.
Description: as §2
In experiment [14] the target is T7, rat SLITRK6. The experiment in a line: ELISA, coated antigen.
Description: as §2
The target of experiment [15] is T7, rat SLITRK6. The experiment in a line: BLI; antigen-his on anti-his tips, antibody or ADC as analyte; 1:1 fit.
Description: (§3) Binding kinetic of antibody-antigen was characterized by the bio-layer interferometry (BLI). 100 nM of SLITRK6′ extracellular domain linked to his tag was immobilized on anti-his biosensor tips (Fortebio). The sensors were rinsed with the buffer (50 mM Tris-AcOH, pH 6 or 7.5, 0.05% v/v surfactant P20) for 10 min to remove the unbound molecules, then dipped in the antibody solutions at different concentrations for 180 seconds and interspersed by a rinsing step in the buffer solution for 300 seconds. Binding affinity was calculated using ForteBio Data Acquisition 6.3 software (ForteBio) and was derived by fitting the kinetic data to a 1:1 Langmuir binding model utilizing global fitting algorithms. The dissociation or association equilibrium constant KD was calculated from the binding rate constants as KD=koff/kₒₙ (where koff and kₒₙ represent the dissociation kinetic constant and the association kinetic constant, respectively).
Experiment [16] addresses T4, human SLITRK6 on cells. The experiment in a line: flow cytometry on CHP-212 cells.
Description: (§4) The binding activity of mAbs was evaluated by flow cytometer (Beckman, Cytoflex). Specifically, cells were incubated with 50 μL of mAbs or ADCs in series dilutions in PBS containing 1% BSA at 4° C. for 30 minutes. The cells were washed twice with PBS containing 1% BSA, stained with PE-conjugated anti human Fc in PBS containing 1% BSA and then incubated at 4° C. for 20 min. After that the cells were washed twice with PBS and analyzed by a flow cytometer.
Experiment [17] has as its target T2, human SLITRK6 extracellular domain …. The experiment in a line: BLI binning on huSLITRK6-his; Ab1 = row antibody first, then Ab2 (competitor) = hu1H2-03.
Description: (§5) Epitope binning was characterized by the bio-layer interferometry (BLI). 100 nM of human SLITRK6′ extracellular domain linked to his tag was immobilized on anti-his biosensor tips (Fortebio). The sensors were rinsed with the buffer (50 mM Tris-AcOH, pH 6 or 7.5, 0.05% v/v surfactant P20) for 30 seconds to remove the unbound molecules, then dipped in the 100 nM of antibody 1 solutions for 180 seconds and interspersed by a rinsing step in the buffer solution for 300 seconds. After that, the sensors were dipped in the 100 nM of antibody 2 solutions. The epitope cluster was calculated using ForteBio Data Acquisition 6.3 software.
Experiment [18] has as its target T4, human SLITRK6 on cells. The experiment in a line: flow cytometry on RT4 cells, PE-conjugated anti-human Fc. This is another data set of the same source.
Description: (§6) The binding activity of mAbs and ADCs was evaluated by flow cytometer (Beckman, Cytoflex). Specifically, cells were incubated with 50 μL of mAbs or ADCs in series dilutions in PBS containing 1% BSA at 4° C. for 30 min. The cells were washed twice with PBS containing 1% BSA, stained with PE-conjugated anti human Fc in PBS containing 1% BSA and then incubated at 4° C. for 20 min. After that the cells were washed twice with PBS and analyzed by a flow cytometer.
For experiment [19], the target named is T4, human SLITRK6 on cells. Description: flow cytometry on 293F-SLITRK6-C9 cells.
Description: as §6
Experiment [20] concerns the target T2, human SLITRK6 extracellular domain …. Description: BLI binning on huSLITRK6-his; Ab1 = row antibody first, then Ab2 (competitor) = phA290.
Description: as §5
For experiment [21], the target named is T4, human SLITRK6 on cells. The experiment in a line: flow cytometry on RT4 cells.
Description: as §6
Experiment [22] deals with T4, human SLITRK6 on cells. Description: flow cytometry on SW780 cells.
Description: as §6
In experiment [23] the target is T4, human SLITRK6 on cells. The experiment in a line: flow cytometry on SW780 cells. The source holds these as a separate data set.
Description: as §4
In experiment [24] the target is T2, human SLITRK6 extracellular domain …. The experiment in a line: BLI binning on huSLITRK6-his; Ab1 = row antibody first, then Ab2 (competitor) = phA108.
Description: as §5
Experiment [25] concerns the target T4, human SLITRK6 on cells. Description: flow cytometry on RT4 cells. This is another data set of the same source.
Description: as §4
Experiment [26] deals with T4, human SLITRK6 on cells. The experiment in a line: flow cytometry on RT112/84 cells.
Description: as §4
Experiment [27] addresses T4, human SLITRK6 on cells. Description: flow cytometry on CHP-212 cells. The source holds these as a separate data set.
Description: as §6
For experiment [28], the target named is T2, human SLITRK6 extracellular domain …. The experiment in a line: BLI binning on huSLITRK6-his; Ab1 = row antibody first, then Ab2 (competitor) = hu1H2-13.
Description: as §5
The target is the same in experiment [29]. Description: BLI binning on huSLITRK6-his; Ab1 = row antibody first, then Ab2 (competitor) = hu14G1-03.
Description: as §5
Experiment [30] deals with T1, cynomolgus monkey SLITRK6 extracellular …. Description: BLI; antigen ECD-his on anti-his tips, antibody as analyte; 1:1 fit.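 Further: antibody at several concentrations, 180 s association then 300 s dissociation in Tris buffer at pH 6 or 7.5, rate constants from global fitting, KD computed as koff/kon.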
Description: (§7) Binding kinetic of antibody-antigen was characterized by the bio-layer interferometry (BLI). 100 nM of SLITRK6′ extracellular domain linked to his tag was immobilized on anti-his biosensor tips (Fortebio). The sensors were rinsed with the buffer (50 mM Tris-AcOH, pH 6 or 7.5, 0.05% v/v surfactant P20) for 10 min to remove the unbound molecules, then dipped in the antibody solutions at different concentrations for 180 seconds and interspersed by a rinsing step in the buffer solution for 300 seconds. Binding affinity was calculated using ForteBio Data Acquisition 6.3 software (ForteBio) and was derived by fitting the kinetic data to a 1:1 Langmuir binding model utilizing global fitting algorithms. The dissociation or association equilibrium constant KD was calculated from the binding rate constants as KD=koff/kₒₙ(where koff and kₒₙ represent the dissociation kinetic constant and the association kinetic constant, respectively).
Experiment [31] concerns the target T2, human SLITRK6 extracellular domain …. The experiment is described as above.
Description: as §7
For experiment [32], the target named is T4, human SLITRK6 on cells. The experiment in a line: flow cytometry on SW780 cells, PE-conjugated anti-human Fc. This is another data set of the same source.
Description: as §6
For experiment [33], the target named is T2, human SLITRK6 extracellular domain …. The experiment in a line: BLI binning on huSLITRK6-his; Ab1 = row antibody first, then Ab2 (competitor) = Sirtratumab.
Description: as §5

T3 sequence (Q8C110 23-609): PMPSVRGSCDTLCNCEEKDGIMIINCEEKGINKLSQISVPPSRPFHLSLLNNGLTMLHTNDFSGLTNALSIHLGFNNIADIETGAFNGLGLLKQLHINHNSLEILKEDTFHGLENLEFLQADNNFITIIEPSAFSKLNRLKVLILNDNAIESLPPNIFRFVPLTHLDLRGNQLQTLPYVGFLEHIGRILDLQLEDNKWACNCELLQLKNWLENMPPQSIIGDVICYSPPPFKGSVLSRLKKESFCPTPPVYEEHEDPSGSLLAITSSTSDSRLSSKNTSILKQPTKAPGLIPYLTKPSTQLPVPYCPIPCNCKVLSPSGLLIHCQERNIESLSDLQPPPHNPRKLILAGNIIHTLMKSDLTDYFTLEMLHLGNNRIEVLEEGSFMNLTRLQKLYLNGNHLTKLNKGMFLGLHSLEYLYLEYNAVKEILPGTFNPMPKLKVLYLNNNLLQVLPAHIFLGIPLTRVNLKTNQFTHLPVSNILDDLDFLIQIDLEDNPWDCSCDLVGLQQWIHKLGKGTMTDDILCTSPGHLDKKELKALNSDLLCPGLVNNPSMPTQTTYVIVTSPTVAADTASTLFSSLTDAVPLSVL
Description for human SLITRK1: as §3
Description for human SLITRK4: as §3
Description for mouse SLITRK6: as §3

B1: hu1H2-03-LD038 (antibody, V domains shown)
VH: EVQLVESGGGLVQPGGSLRLSCAASGFTFSDYGLHWVRQAPGKGLEWVSYISSGSSTVYFADTLKGRFTISRDNAKNSLYLQMNSLRAEDTAVYYCTRGTWYFDVWGRGTLVTVSS
VL: DIQMTQSPSSLSASVGDRVTITCRTSENIHSYLAWYQQKPGKSPQLLVYNAKTLADGVPSRFSGSGSGTDYTLTISSLQPEDFGTFYCQHFWTTSRTFGGGTKVEIK
modifications: drug-linker LD038 conjugated to the antibody; positions not given
notes: also called hu1H2-03-LALA-LD038; hu1H2-03-LD038 (8)
As for B1, the values for the Kd (in experiment [1]; in experiment [2]; in the experiment with mouse SLITRK6) were 0.21 nM, 0.08 nM and 0.61 nM, respectively. Also, the “EC50 (read off the curve)” value with human SLITRK6 on cells [3] is about 0.2 nM; with human SLITRK6 on cells [4], about 0.3 nM; with human SLITRK6 on cells [6], about 0.4 nM; in the experiment with human SLITRK6 on cells [7], about 0.2 nM; with human SLITRK6 on cells [8], about 0.3 nM; with human SLITRK6 on cells [9], about 0.2 nM. Moreover, in the experiment with human SLITRK6 on cells [10], the “EC50 (read off the curve)” value was about 1 nM. Also, the binding result with human SLITRK4, with human SLITRK1 and with rat SLITRK6 [5] was “no binding” throughout.

B2: Sirtratumab (antibody, V domains shown)
VH: QVQLVESGGGVVQPGRSLRLSCAASGFTFSSYGMHWVRQAPGKGLEWVAVIWYDGSNQYYADSVKGRFTISRDNSKNTLFLQMHSLRAEDTAVYYCARGLTSGRYGMDWGQGTTVTVSS
VL: DIVMTQSPLSLPVTPGEPASISCRSSQSLLLSHGFNYLDWYLQKPGQSPQLLIYLGSSRASGVPDRFSGSGSGTDFTLKISRVEAEDVGLYYCMQPLQIPWTFGQGTKVEIK
notes: Prior-art benchmark antibody; also called Sirtratuzumab
Take B2: the EC50 was 1.41 nM in the experiment with human SLITRK6 on cells [11]; 0.06 nM in experiment [12]; 0.06 nM in experiment [13]; 0.88 nM in the experiment with rat SLITRK6 [14]; 0.21 nM with human SLITRK6 on cells [16]; 1.41 nM in the experiment with human SLITRK6 on cells [19]. The EC50 with human SLITRK6 on cells [21] is 0.26 nM; in the experiment with human SLITRK6 on cells [22], 0.39 nM; in the experiment with human SLITRK6 on cells [23] it was 0.33 nM; with human SLITRK6 on cells [25], 0.2 nM; with human SLITRK6 on cells [26], 0.2 nM; in the experiment with human SLITRK6 on cells [27], 0.25 nM. In addition, the Kd in [1] was found to be 1.2 nM; in experiment [2], 0.35 nM; with mouse SLITRK6, 3.5 nM; with rat SLITRK6 [15] it was 1.5 nM; in [30] it was 6.01 nM; in experiment [31], 5 nM. Also, the concentration for a half-maximal effect (EC50 (read off the curve)) is about 0.1 nM with human SLITRK6 on cells [3]; about 0.2 nM with human SLITRK6 on cells [4]; about 0.2 nM with human SLITRK6 on cells [6]; about 0.3 nM with human SLITRK6 on cells [18]; about 1 nM in the experiment with human SLITRK6 on cells [10]; about 0.3 nM with human SLITRK6 on cells [32]. For the same molecule, the epitope binning signal amounted to 0.281 in experiment [17]; 0.256 in experiment [20]; 0.252 in experiment [24]; 0.282 in experiment [28]; 0.244 in experiment [29]; 0.0645 in experiment [33]. For the same molecule, the koff in [30] is 0.0037 s⁻¹; in experiment [31], 0.00416 s⁻¹. Further, the kon in experiment [30] turned out to be 615000 M⁻¹ s⁻¹; in experiment [31] it was 831000 M⁻¹ s⁻¹.
